Measurements from the supplement of paper PMC12042874.
± gives the uncertainty stated by the source.

assay: amyloid nucleation score (Sup35N fusion, yeast selection) (log enrichment); library NNK1; higher = more nucleation; inactive = no reads after selection
In short: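 Nucleation score: DiMSum log enrichment of output over input reads, centred on the mode score of non-aggregating sequences. Only sequences with at least 100 input reads were kept. Reads came from Illumina sequencing of plasmid inserts before and after 7 days of growth at 30°C without adenine and uracil, in psi-negative yeast expressing Sup35N fused to peptides of 20 random codons after 24 hours of induction with 100 μM copper sulfate.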

Substance | amyloid nucleation score
NCWQLYLKHSVPRRIQRGYA | -0.577 ± 0.48
LFDVYN | -0.549 ± 0.49
THFTTYYYWSQWGLWLSFCQ | 0.596 ± 0.31
ILSFSVRLPVHDSSLCFGSG | 0.316 ± 0.67
SGPGDKVAISMNIY | 5.16 ± 0.087
FIFLRYGLYVFFASLNGQGY | -0.33 ± 0.83
VDGMGYDLIMCLYYNGLWAN | 0.515 ± 0.54
YNVIWSMVGEYLHSSCYGPV | inactive
WYHFVSGAVPHGSNEPKEFN | -1 ± 0.9
ERITIFVSVRTGKLRYLWPT | -0.837 ± 2.4
HQLGQYHTACHAPSARCTPL | -0.221 ± 0.52
SGRRTYMLRMLQWVGVIAYR | -2.36 ± 2.4
NIEGRVYRIDSAGGPCIYVL | -0.621 ± 0.5
SCTFKMMMGSVLL | 4.45 ± 0.067
HYTLIGIY | inactive
TIRVQHYCVDRGQESVLMGS | -0.524 ± 0.51
ACLISMMLVLCYI | 1.67 ± 0.53
TEGRKSSNVQ | 0.577 ± 0.47
ARSCVLNLVPGFSPSFGT | -0.426 ± 0.52
YYGVWVDREHWL | 0.628 ± 0.48
QWCVKESAFIYEYRLSGDCL | -0.584 ± 0.74
RSSKGFMCMEMCLGWGQSTS | 3.41 ± 0.095

Substance | amyloid nucleation score
NCWFCNRQNSLSGKELYVIR | inactive
ITCYGKCYPSRDKL | 1.27 ± 0.56
YLCSSVPLSEHNLILSITWD | inactive
CLNGMQPHKWFGMCVWVCPC | -0.212 ± 0.58
YVEVQVIKWVMKSEVHRGAW | 1.27 ± 0.48
WSKHLAYIVYDVQ | -0.325 ± 1
KWIGIYINFDGYSVGS | 7.598 ± 0.044
GYHSKFRWVLLFVVTSASGE | inactive
PGLFYETDHVASVVVCKSPH | -0.231 ± 0.45
KTRSNMNFHCS | 0.195 ± 0.6
DEGRSTQSVVCLVMEVNSDR | 0.411 ± 0.48
AACGWHRLICNKFSQFTRGP | -0.021 ± 0.75
VHTGLVSEIRRDKREGAYPE | 0.128 ± 0.99
KFNITFVSVKSYKVPLSLDI | 4.81 ± 0.066
VCWYWVGILRMMICACTSPS | 0.362 ± 0.43
LTVIVFIMEATIDYYGGRCG | 0.959 ± 0.92
RKFSNLVGRYALFICLKSLT | -0.28 ± 0.3
TVYGGLWAFSKTICCVSPKR | 7.228 ± 0.056
MMIWNSNSEQVRCIIGMPWL | 4.79 ± 0.085
YSNSGMGNV | 0.568 ± 0.21
RRGEPIKKIPACGGSLCVR | -0.368 ± 0.47
DKRYGDEVRHTGRWSRSVVW | 0.013 ± 0.42

Substance | amyloid nucleation score
MLFDV | -0.077 ± 0.21
SQCLSKLLSIDISRCWAGQM | 2.59 ± 0.46
TVSMDVLYMIGGCLLCVV | 0.209 ± 0.41
IFVYCEFNKNRIPALASWVG | 0.93 ± 0.43
SLFKNR | 0.171 ± 0.61
ISYMHKLCLFSFYLDHKLTL | -1.49 ± 1.4
RHSGDFLVFMYKGVLVWSTG | 3.24 ± 0.092
PTGSYKAGSSSSLVYPFED | -0.062 ± 0.52
FDSGLETTNIKMRYMVVYLR | -0.608 ± 0.38
YASVVGYLPGCTNINAMKNR | inactive
NCYLLFFCRLSSLSYAYQVY | -0.815 ± 1.2
HLPFYLCF | 1.57 ± 0.43
GKYILYDQCSNTINSGKLSI | inactive
GFSLDRFSDHVLMGNSD | -0.585 ± 0.23
HVIQKSN | -0.988 ± 0.5
CITFMVRYGLRLHR | 0.089 ± 0.58
IIICFRTWLTCSFCFDSAPC | 0.227 ± 0.49
DCNLSSYLVYWAFHYDKLMS | 0.083 ± 0.58
VGSQKCLYCGVAYSEGVWIY | inactive
CNLSTCSFHFHFLT | 4.53 ± 0.11
SVKNYLCLMTTPFVFVLEM | 5.417 ± 0.049
SPQQVSLVGWSRWTEPRTS | -0.211 ± 0.36

Substance | amyloid nucleation score
NNMRVLLRFLSVVLGSGEVR | 1.01 ± 0.67
DVSVT | inactive
YGMAF | -1.71 ± 2.4
FFVGEDRACSRYSLTTTITG | 0.554 ± 0.64
LLYTVY | -0.849 ± 1.2
TMYVALFLFLA | 2.54 ± 0.29
MLRTQQFSLLFEYHVHGEGG | 3.75 ± 0.075
NCFLCSVARNNYVLRCPSSN | 6.07 ± 0.067
MFSTKSH | 0.543 ± 0.49
FRWRSSGGLVCFLDAVVVSV | -0.249 ± 0.38
SRGLRNLSSMPNWAGLP | 0.707 ± 0.61
YNLWIGLCRIMEEVILGGT | -0.863 ± 0.61
PMTKCMLSSLGWCAHVPVRE | 0.369 ± 0.52
VSSVGKMPDALRVKAKWIFM | 0.141 ± 0.29
FLENSTTSYNCYFNARWKCS | 0.389 ± 0.35
NNMRYTV | inactive
PVRSL | -0.515 ± 0.48
GIFSNLEVGYKPKN | -0.694 ± 0.39
KLWFVGSLYSGNVQVYVVVP | 4.49 ± 0.061
YAKVSAIERRCWVMSVTYPD | 0.171 ± 0.28
